These results are taken from patent publication US20120128689A1 (GlaxoSmithKline, published 2012).

To fix the notation:
T1: human IL-23 (human, UniProt Q9NPF7 20-189; P29460 23-328)
T1 construct: Heterodimer of p19 and p40; also called hIL-23
T1 sequence 1: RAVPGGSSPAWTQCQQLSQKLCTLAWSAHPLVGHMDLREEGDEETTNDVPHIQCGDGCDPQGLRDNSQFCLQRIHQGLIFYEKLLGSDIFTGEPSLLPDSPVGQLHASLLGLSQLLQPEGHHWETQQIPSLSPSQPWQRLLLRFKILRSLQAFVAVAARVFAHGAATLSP
T1 sequence 2: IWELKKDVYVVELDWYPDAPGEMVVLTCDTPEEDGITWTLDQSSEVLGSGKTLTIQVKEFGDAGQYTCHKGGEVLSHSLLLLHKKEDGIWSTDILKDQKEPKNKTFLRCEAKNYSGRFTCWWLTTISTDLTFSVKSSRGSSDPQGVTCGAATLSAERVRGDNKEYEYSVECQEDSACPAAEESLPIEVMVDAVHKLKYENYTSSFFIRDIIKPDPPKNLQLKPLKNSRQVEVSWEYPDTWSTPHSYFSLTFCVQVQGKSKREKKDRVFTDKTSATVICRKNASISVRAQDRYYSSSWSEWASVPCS

T2: cyno IL-23 (cyno, limits assumed)
T2 construct: Heterodimer of p19 and p40; also called cynomolgus IL-23
T2 chain 1: T1 sequence 1 with T12A, H75R, L131P
T2 chain 2: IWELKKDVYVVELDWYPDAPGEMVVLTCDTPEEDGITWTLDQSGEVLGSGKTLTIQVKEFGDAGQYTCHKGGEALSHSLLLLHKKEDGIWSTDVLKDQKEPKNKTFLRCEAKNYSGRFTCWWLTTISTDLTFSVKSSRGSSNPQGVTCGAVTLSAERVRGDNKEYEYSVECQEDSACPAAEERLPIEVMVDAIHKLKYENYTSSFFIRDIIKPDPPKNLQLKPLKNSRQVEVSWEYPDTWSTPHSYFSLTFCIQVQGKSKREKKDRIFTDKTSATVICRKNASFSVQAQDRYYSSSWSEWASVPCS

B1: A5M20 (antibody, human IgG1, kappa, V domains shown)
VH: QVQLVQSGAEVKKPGSSVKVSCKASGYTFTSYGITWVRQAPGQGLEWMGENYPRSGNTYYNEKFKGRVTITADKSTSTAYMELSSLRSEDTAVYYCARAEFISTVVAPYYYALDYWGQGTLVTVSS
VL: DIVMTQSPDSLAVSLGERATINCKASKKVTIFGSISALHWYQQKPGQPPKLIYNLAKLESGVPDRFSGSGSGTDFTLTISSLQAEDVAVYYCLQNKEVPYTFGGGTKVEIKR
B2: A6M20 (antibody, human IgG1, kappa, V domains shown)
VH: B1 VH with A99V
VL: B1 VL
B3: A24AM18 (antibody, human IgG1, kappa, V domains shown)
VH: B1 VH with T58I
VL: B1 VL with I35T, L58P
B4: A5M21 (antibody, human IgG1, kappa, V domains shown)
VH: B1 VH
VL: B1 VL with F32Y, I35T, L58P
B5: A3M0 (antibody, human IgG1, kappa, V domains shown)
VH: B1 VH with A99S
VL: B1 VL with L55G
notes: human gamma1 and kappa constant regions; Tested as HEK supernatant and as purified antibody; also called A3M0 purified
B6: A3M18 (antibody, human IgG1, kappa, V domains shown)
VH: B1 VH with A99S
VL: B1 VL with I35T, L58P
B7: A5M12 (antibody, human IgG1, V domains shown)
VH: B1 VH
VL: DIVMTQSPDSLAVSLGERATINCKASKKVTIYGSTSALHWYQQKPGQPPKLIYNGAKPESGVPDRFSGSGSGTDFTLTISSLQAEDVAVYYCLQNKEVPYTFGGGTKVEIK
B8: A5M0 (antibody, human IgG1, kappa, V domains shown)
VH: B1 VH
VL: B1 VL with L55G
B9: A24AM4 (antibody, human IgG1, kappa, V domains shown)
VH: B1 VH with T58I
VL: B1 VL with I35T, L55G, L58P

Numbering of substitutions follows the chain as printed.

The first assay addresses T1, human IL-23. The experiment in a line: SPR Biacore T100, mAb from HEK supernatant captured on anti-human IgG, human IL-23 64-0.062 nM. As for the experimental part: (§1) An anti-human IgG (Biacore BR-1008-39) was immobilised on a Biacore CM5 chip by primary amine coupling in accordance with the manufacturer's instructions. Anti IL-23 antibodies were captured on this surface and after a period of stabilisation, IL-23 (cyno or human) was passed over the antibody captured surface and a binding sensorgram was obtained. […] All runs were double referenced with a buffer injection over the captured antibody surface. Data was analysed using the 1:1 model using the software inherent to the Biacore T100. Analysis was carried out at 25° C. using HBS-EP buffer. Data presented in Tables 1 and 2 are on tissue culture supernatants of HEK cells transiently expressing the antibody of interest unless otherwise indicated.
Turning to B1, the Kd amounted to 0.066 nM, the koff was determined as 0.000159 s⁻¹ and the kon was 2.41e+06 M⁻¹ s⁻¹.

Regarding B2, the affinity, expressed as Kd, was 0.078 nM; the koff is 0.000205 s⁻¹; the kon was 2.62e+06 M⁻¹ s⁻¹.

On to B3, for which the Kd was found to be 0.051 nM, the koff is 0.000122 s⁻¹ and the kon came to 2.4e+06 M⁻¹ s⁻¹.

B4 yielded a Kd of 0.065 nM, a koff of 0.000113 s⁻¹ and an on-rate constant (kon) of 1.73e+06 M⁻¹ s⁻¹.

As to B5, the Kd turned out to be 0.207 nM, the koff was found to be 0.000239 s⁻¹ and the kon stood at 1.16e+06 M⁻¹ s⁻¹.

Molecule B6 had a Kd of 0.066 nM, a koff of 0.000115 s⁻¹ and a kon of 1.73e+06 M⁻¹ s⁻¹.

The target of another assay is T2, cyno IL-23. The experiment in a line: SPR Biacore, purified mAb captured on anti-human IgG, cyno IL-23 64-0.062 nM. As for the experimental part:
as §1
(§2) This experiment was repeated with purified IL-23 antibodies and data shown in Table 3 was generated using 64, 16, 4, 1, 0.25 and 0.062 nM concentrations of human and cyno IL-23.
B1: binding was put at a Kd of 0.086 nM, the koff was found to be 0.000176 s⁻¹ and the kon came out at 2.05e+06 M⁻¹ s⁻¹.

For the molecule B7, the Kd was 0.093 nM, the koff was 0.000134 s⁻¹ and the kon is 1.45e+06 M⁻¹ s⁻¹.

B3 yielded a Kd of 0.07 nM, a koff of 0.000132 s⁻¹ and a kon of 1.88e+06 M⁻¹ s⁻¹.

In turn, B8 returned a Kd of 0.173 nM, a koff of 0.000224 s⁻¹ and a kon of 1.3e+06 M⁻¹ s⁻¹.

On to B4, for which the Kd came to 0.075 nM, the koff came out at 0.00012 s⁻¹ and the kon stood at 1.6e+06 M⁻¹ s⁻¹.

For the molecule B9, the Kd was found to be 0.085 nM, the koff amounted to 0.000147 s⁻¹ and the kon was found to be 1.74e+06 M⁻¹ s⁻¹.

On to B5, for which binding was characterised by a dissociation constant (Kd) of 0.302 nM, the koff amounted to 0.000298 s⁻¹ and the kon stood at 984000 M⁻¹ s⁻¹.

Another assay deals with T2, cyno IL-23. Kind of assay: SPR Biacore T100, purified mAb captured on anti-human IgG, one concentration of cyno IL-23 (256 nM).
Molecule B5 showed a Kd of 0.332 nM, a koff of 0.000583 s⁻¹ and a kon of 1.76e+06 M⁻¹ s⁻¹.

The target of another assay is T1, human IL-23. Kind of assay: inhibition ELISA: antibody pre-incubated with a constant concentration of human IL-23, IL-23 bound to plate-coated human IL23R Fc chimera detected with biotinylated anti-human IL12, OD450. The protocol:
Plates were coated with human IL23R Fc chimera at […] (phosphate buffered saline). 50 μl/well of this mixture was incubated overnight at 4° C. The plates were then washed three times with Phosphate Buffered Saline with 0.05% Tween 20 (PBST). Plates were blocked with 4% skim milk powder (Fluka BioChemika #70166) PBST 100 μl/well for a minimum of 1 hour at room temperature. The plates were then washed three times with Phosphate Buffered Saline+0.05% Tween 20 (PBST). Various concentrations of antibody were incubated in a separate plate with a constant concentration of IL-23 for 1 hour at room temperature. 50 ul of each mixture were transferred to the assay plate and incubated at RT for 1 hr. They were then washed three times with Phosphate Buffered Saline+0.05% Tween 20 (PBST). Bound IL23 was detected by anti human IL12 Biotin labelled Ab (R&D systems BAF219) diluted to 100 ng/ml in 4% skim milk powder (Fluka BioChemika #70166) PBST. 50 μl/well of the biotinylated antibody was added and incubated at RT for 1 hour. The plates were then washed three times with Phosphate Buffered Saline+0.05% Tween 20 (PBST). SA HRP (GE healthcare RPN4401) was diluted 1/4000 in 4% skim milk powder (Fluka BioChemika #70166) PBS, 50 μl/well was added to the plates. The plates were then washed three times with Phosphate Buffered Saline+0.05% Tween 20 (PBST). 50 ul/well of TMB was added to the plates and incubated at RT for 15 min. 25 μl/well of 3 MH₂SO₄ was added to the wells already containing TMB. The plate was read at OD450 nm using the SOftmaxPRO versamax plate reader.
As for B1, the “IC50 (read off the curve)” value was roughly 0.2 nM.

For the molecule B7, the “IC50 (read off the curve)” value was roughly 0.2 nM.

Turning to B3, the “IC50 (read off the curve)” value was roughly 0.2 nM.

Consider B8, for which the “IC50 (read off the curve)” value was roughly 0.3 nM.

Turning to B4, the “IC50 (read off the curve)” value was roughly 0.2 nM.

B9: the “IC50 (read off the curve)” value was roughly 0.2 nM.

In the case of B5, the “IC50 (read off the curve)” value is roughly 0.7 nM.

For a further assay, the target named is T1, human IL-23. Kind of assay: SPR Biacore, purified mAb captured on anti-human IgG, human IL-23 64-0.062 nM. The protocol: as §1, §2
As for B1, binding was put at a Kd of 0.061 nM, the koff turned out to be 0.00014 s⁻¹ and the kon stood at 2.29e+06 M⁻¹ s⁻¹.

B7 showed a Kd of 0.08 nM, a koff of 0.000132 s⁻¹ and a kon of 1.66e+06 M⁻¹ s⁻¹.

As for B3, the Kd is 0.053 nM, the koff came to 0.000115 s⁻¹ and the kon was 2.16e+06 M⁻¹ s⁻¹.

As to B8, the equilibrium dissociation constant (Kd) was 0.114 nM, the koff turned out to be 0.000175 s⁻¹ and the kon turned out to be 1.54e+06 M⁻¹ s⁻¹.

For B4, binding was characterised by a dissociation constant (Kd) of 0.064 nM, the koff came to 0.000112 s⁻¹ and the kon stood at 1.74e+06 M⁻¹ s⁻¹.

In the case of B9, the Kd was 0.065 nM, the koff came to 0.000132 s⁻¹ and the kon stood at 2.02e+06 M⁻¹ s⁻¹.

B5 gave a Kd of 0.186 nM, a koff of 0.000216 s⁻¹ and a kon of 1.16e+06 M⁻¹ s⁻¹.

The target of a further assay is T1, human IL-23. The experiment in a line: SPR Biacore T100, purified mAb captured on anti-human IgG, human IL-23 64-0.062 nM.
For B5, the Kd came to 0.197 nM, the koff was 0.000235 s⁻¹ and the kon was determined as 1.19e+06 M⁻¹ s⁻¹.

The target of the next assay is T2, cyno IL-23. The experiment in a line: SPR Biacore T100, mAb from HEK supernatant captured on anti-human IgG, one concentration of cyno IL-23 (256 nM). The protocol: as §1
In turn, B1 came in with a Kd of 0.115 nM, a koff of 0.000306 s⁻¹ and a kon of 2.66e+06 M⁻¹ s⁻¹.

B2 registered a Kd of 0.136 nM, a koff of 0.000497 s⁻¹ and a kon of 3.65e+06 M⁻¹ s⁻¹.

With B3, the Kd is 0.092 nM, the koff was 0.000176 s⁻¹ and the kon is 1.91e+06 M⁻¹ s⁻¹.

B4 had an equilibrium dissociation constant (Kd) of 0.169 nM, a koff of 0.000123 s⁻¹ and a kon of 727000 M⁻¹ s⁻¹.

On to B5, for which binding was characterised by a dissociation constant (Kd) of 0.365 nM, the koff was determined as 0.000484 s⁻¹ and the kon was found to be 1.33e+06 M⁻¹ s⁻¹.

In the case of B6, binding was characterised by a dissociation constant (Kd) of 0.185 nM, the koff was 0.000163 s⁻¹ and the kon is 883000 M⁻¹ s⁻¹.

A further assay concerns the target T1, human IL-23. The experiment in a line: cell-based or functional assay.
Regarding B1, the “IC50 (inhibition of IL-23 driven STAT3 phosphorylation in human activated T cell blasts)” value stood at 0.0685 nM.

Turning to B3, the “IC50 (inhibition of IL-23 driven STAT3 phosphorylation in human activated T cell blasts)” value came out at 0.0473 nM.

In the case of B4, the “IC50 (inhibition of IL-23 driven STAT3 phosphorylation in human activated T cell blasts)” value is 0.0384 nM.

For the molecule B5, the “IC50 (inhibition of IL-23 driven STAT3 phosphorylation in human activated T cell blasts)” value stood at 0.115 nM.
